Entries after “also recorded” stand apart in the source; their conditions may differ.
B1: human lactoferrin (protein, UniProt P02788 20-710, looked up)
Lactotransferrin: GRRRSVQWCAVSQPEATKCFQWQRNMRKVRGPPVSCIKRDSPIQCIQAIAENRADAVTLDGGFIYEAGLAPYKLRPVAAEVYGTERQPRTHYYAVAVVKKGGSFQLNELQGLKSCHTGLRRTAGWNVPIGTLRPFLNWTGPPEPIEAAVARFFSASCVPGADKGQFPNLCRLCAGTGENKCAFSSQEPYFSYSGAFKCLRDGAGDVAFIRESTVFEDLSDEAERDEYELLCPDNTRKPVDKFKDCHLARVPSHAVVARSVNGKEDAIWNLLRQAQEKFGKDKSPKFQLFGSPSGQKDLLFKDSAIGFSRVPPRIDSGLYLGSGYFTAIQNLRKSEEEVAARRARVVWCAVGEQELRKCNQWSGLSEGSVTCSSASTTEDCIALVLKGEADAMSLDGGYVYTAGKCGLVPVLAENYKSQQSSDPDPNCVDRPVEGYLAVAVVRRSDTSLTWNSVKGKKSCHTAVDRTAGWNIPMGLLFNQTGSCKFDEYFSQSCAPGSDPRSNLCALCIGDEQGENKCVPNSNERYYGYTGAFRCLAENAGDVAFVKDVTVLQNTDGNNNEAWAKDLKLADFALLCLDGKRKPVTEARSCHLAMAPNHAVVSRMDKVERLKQVLLHQQAKFGRNGSDCPDKFCLFQSETKNLLFNDNTECLARLHGKTTYEKYLGPQYVAGITNLKKCSTSPLLEACEFLRK
notes: Human LF purified from human tear fluid by size exclusion chromatography
B2: rhLF: recombinant hLF produced in Aspergillus awamori, human amino acid backbone, high-mannose glycosylation pattern (protein, UniProt P02788 20-710, looked up)
Lactotransferrin: B1 Lactotransferrin
modifications: recombinant, expressed in Aspergillus awamori
B3: bovine lactoferrin (protein, UniProt P24627 20-708, looked up)
Lactotransferrin: APRKNVRWCTISQPEWFKCRRWQWRMKKLGAPSITCVRRAFALECIRAIAEKKADAVTLDGGMVFEAGRDPYKLRPVAAEIYGTKESPQTHYYAVAVVKKGSNFQLDQLQGRKSCHTGLGRSAGWIIPMGILRPYLSWTESLEPLQGAVAKFFSASCVPCIDRQAYPNLCQLCKGEGENQCACSSREPYFGYSGAFKCLQDGAGDVAFVKETTVFENLPEKADRDQYELLCLNNSRAPVDAFKECHLAQVPSHAVVARSVDGKEDLIWKLLSKAQEKFGKNKSRSFQLFGSPPGQRDLLFKDSALGFLRIPSKVDSALYLGSRYLTTLKNLRETAEEVKARYTRVVWCAVGPEEQKKCQQWSQQSGQNVTCATASTTDDCIVLVLKGEADALNLDGGYIYTAGKCGLVPVLAENRKSSKHSSLDCVLRPTEGYLAVAVVKKANEGLTWNSLKDKKSCHTAVDRTAGWNIPMGLIVNQTGSCAFDEFFSQSCAPGADPKSRLCALCAGDDQGLDKCVPNSKEKYYGYTGAFRCLAEDVGDVAFVKNDTVWENTNGESTADWAKNLNREDFRLLCLDGTRKPVTEAQSCHLAVAPNHAVVSRSDRAAHVKQVLLHQQALFGKNGKNCPDKFCLFKSETKNLLFNDNTECLAKLGGRPTYEEYLGTEYVTAIANLKKCSTSPLLEACAFLTR
notes: bovine lactoferrin from cow milk (Sigma)

Assays:
[1] = target: T1, HAdV-C5 hexon (Human adenovirus C serotype 5, UniProt P04133); assay: Surface plasmon resonance, HAdV-C5 hexon immobilized; assay type: binding
T1 construct: the top phase containing soluble viral components was recovered, and HAdV hexons were purified using monoclonal hexon antibodies; made in house; host or cells: A549 cells infected with wild-type HAdV-C5 (strain Ad75)
T1 sequence (P04133 2-952 limits assumed): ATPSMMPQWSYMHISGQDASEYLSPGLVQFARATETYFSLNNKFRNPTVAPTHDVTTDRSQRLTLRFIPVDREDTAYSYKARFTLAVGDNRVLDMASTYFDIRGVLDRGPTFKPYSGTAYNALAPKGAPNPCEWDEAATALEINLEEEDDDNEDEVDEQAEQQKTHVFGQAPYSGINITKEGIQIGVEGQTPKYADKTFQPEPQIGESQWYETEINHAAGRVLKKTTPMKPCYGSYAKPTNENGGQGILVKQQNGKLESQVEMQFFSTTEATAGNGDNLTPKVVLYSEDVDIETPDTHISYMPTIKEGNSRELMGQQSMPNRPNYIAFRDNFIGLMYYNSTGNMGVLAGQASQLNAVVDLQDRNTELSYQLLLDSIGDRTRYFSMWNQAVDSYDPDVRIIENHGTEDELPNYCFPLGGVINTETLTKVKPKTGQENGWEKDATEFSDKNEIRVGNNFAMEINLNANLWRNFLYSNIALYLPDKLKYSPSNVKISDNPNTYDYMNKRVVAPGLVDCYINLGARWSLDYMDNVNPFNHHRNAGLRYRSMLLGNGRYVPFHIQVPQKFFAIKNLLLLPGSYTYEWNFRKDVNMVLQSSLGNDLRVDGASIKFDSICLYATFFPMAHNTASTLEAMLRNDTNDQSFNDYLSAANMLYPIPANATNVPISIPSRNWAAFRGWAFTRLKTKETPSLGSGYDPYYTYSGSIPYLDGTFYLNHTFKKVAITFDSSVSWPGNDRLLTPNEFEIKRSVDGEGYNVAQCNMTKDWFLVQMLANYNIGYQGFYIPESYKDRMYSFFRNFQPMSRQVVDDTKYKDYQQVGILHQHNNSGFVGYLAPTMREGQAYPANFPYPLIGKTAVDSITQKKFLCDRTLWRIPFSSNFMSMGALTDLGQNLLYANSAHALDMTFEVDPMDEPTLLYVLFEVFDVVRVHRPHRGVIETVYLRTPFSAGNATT
Method: (§1) Ten flasks of 70% confluent A549 cells were infected with HAdV-C5, HAdV-A31, or HAdV-B35. After initial inoculation, unbound virus was washed away, and approximately 30 ml of fresh medium (DMEM plus 20 mM HEPES [N-2-hydroxyethylpiperazine-NN-2-ethanesulfonic acid] plus 5% FBS) was added. At 48 h after infection, the cells were harvested by scraping into a small volume of DMEM, centrifuged, and resuspended in 6 ml of DMEM. The collected cells were lysed and the sample cleared by centrifugation. Virus was separated from soluble viral components by a CsCl gradient, as described previously ([59]). After ultracentrifugation, the top phase containing soluble viral components was recovered, and HAdV hexons were purified using monoclonal hexon antibodies (MAB8052) covalently attached to magnetic protein A/G beads (Pierce) using dimethyl pimelimidate (DMP) according to the manufacturer’s instructions. Bound hexons were washed three times using PBS to remove protein bound unspecifically, followed by elution in 50 μl of 200 mM glycine buffer at pH 2.5.
(§2) CM5 sensor chips, an amine-coupling kit, and HBS-EP+ buffer (10 mM HEPES, 150 mM NaCl, 3 mM EDTA, and 0.005% [vol/vol] surfactant P20 [pH 7.4]) were all purchased from GE Healthcare. All surface plasmon resonance (SPR) experiments were performed at 25°C in HBS-EP+ running buffer with adenovirus hexons immobilized on the sensor surface. In addition, all experiments were performed with the same batch of LF/Lfcin. Data were collected with a Biacore T200 instrument at a rate of 1 Hz. HAdV hexons were coupled to the CM5 sensor chip by amine coupling reactions according to the manufacturer’s instructions, aiming for an immobilization density of 900 to 1,100 resonance units (RU). The surface of the upstream flow cell was used as a reference and was subjected to the same coupling reaction in the absence of protein. The analytes were serially diluted in running buffer to prepare a 2-fold concentration series ranging from 8 nM to 2 μM and then injected in series over reference and experimental biosensor surfaces for 120 sec at a flow rate of 30 μl/min. Blank samples containing only running buffer were also injected under the same conditions to allow for double referencing. After each cycle, the biosensor surface was regenerated with a 60-sec pulse of 10 mM Tris-glycine (pH 1.5) at a flow rate of 30 μl/min.

[2] = target: HAdV-B35 hexon; assay: Surface plasmon resonance, HAdV-B35 hexon immobilized; assay type: binding
Method: as §1, §2

[3] = target: HAdV-A31 hexon; assay: Surface plasmon resonance, HAdV-A31 hexon immobilized; assay type: binding; details: analyte hLF, HBS-EP+ pH 7.4, 25°C, average from three independent measurements
Method: as §1
CM5 sensor chips, an amine-coupling kit, and HBS-EP+ buffer (10 mM HEPES, 150 mM NaCl, 3 mM EDTA, and 0.005% [vol/vol] surfactant P20 [pH 7.4]) were all purchased from GE Healthcare. All surface plasmon resonance (SPR) experiments were performed at 25°C in HBS-EP+ running buffer with adenovirus hexons immobilized on the sensor surface. In addition, all experiments were performed with the same batch of LF/Lfcin. Data were collected with a Biacore T200 instrument at a rate of 1 Hz. HAdV hexons were coupled to the CM5 sensor chip by amine coupling reactions according to the manufacturer’s instructions, aiming for an immobilization density of 900 to 1,100 resonance units (RU). The surface of the upstream flow cell was used as a reference and was subjected to the same coupling reaction in the absence of protein. […]

[4] = test system: human respiratory epithelial A549 cells (HAdV-C5_GFP); assay: HAdV-C5_GFP transduction of A549 cells; assay type: cell-based; details: for effect of LF on HAdV-C5_GFP transduction of A549 cells (in words): GFP imaging after 44 h (Fig. 1A)
Source text: For all transduction experiments, GFP-expressing vectors were used. The HAdV_GFP vector was purchased from Vector Development Laboratory. All mutated HAdV-C5 vectors were generated in the laboratory of A. Plückthun at the University of Zürich using the AdEasy system (Agilent) to contain an internal ribosome entry site (IRES)-luciferase (Luc)-GFP cassette for detection of transduction. To investigate the role of integrins in transduction, HAdV-C5-IRES-GFP with an intact RGD loop in the penton base protein (-DMNDHAIRGDTFATRAE-) and HAdV-C5-ΔRGD-IRES-GFP (-DMNDTSRAEEKRAE-), known not to bind integrins ([40]), were generated. To determine the binding site for hLF/hLfcin on the hexon protein, hexon-mutated vectors were produced with HVR-1 of HAdV-C5 ([43]) replaced with the corresponding sequence of HAdV-A31, as well as a HAdV-C5 vector mutated in HVR-7 ([44]).
For experiments in A549 cells, 15,000 cells were seeded into a black 96-well plate with a transparent bottom. For experiments with CHO-K1 cells, 20,000 cells were seeded. After 24 h, HAdV-C5 vectors was complexed with 2 μM Lfcin or with ∼12 μM (1 mg/ml) of LF and, after 60 min, added to the cells on ice. The blocking of CAR using soluble HAdV-C5 fiber knob was performed using 10 μg/ml of recombinant knob. After another 60 min, unbound complex was washed away using Dulbecco’s modified Eagle’s medium (DMEM), followed by final addition of fresh medium. After 44 h, the cells were fixed using 4% paraformaldehyde (PFA) for 10 min, and GFP expression was imaged using a Trophos system (Luminy Biotech Entreprises). For the hexon chimeric viruses, transduction was instead quantified by measuring the luciferase activity at 44 h postinfection using a Pierce luciferase glow assay kit.

[5] = test system: epithelial and T cells (species C HAdVs); details: ref [15], cited from earlier work
Source text: This is surprising, as hLF usually exerts antimicrobial functions ([22][–][24]), as well as preventing virus attachment to target cells and/or inhibiting virus replication ([25][–][27]). hLF is produced largely by neutrophils, but also by primary epithelial cells, and it is naturally present in a vast majority of body fluids in concentrations of up to several mg/ml, where it protects epithelia from pathogens ([28][–][31]). […] In this study, we investigated the molecular mechanisms behind hLF-dependent infection. As a first step, we investigated the structural features whereby hLF mediates HAdV-C5 infection of human respiratory A549 cells. In total, we used three different types of lactoferrin, namely, hLF purified from human tear fluid (present in several mg/ml), a recombinant form of hLF produced in Aspergillus with a human amino acid backbone but with a high-mannose glycosylation pattern ... || Utilization of hLF/hLfcin by species C HAdVs could also account for the frequent and persistent infections of species C HAdVs in tonsil T lymphocytes in young children ([56]). […] Taken together, our results highlight the ingenuity of HAdVs and explain how they may ensure efficient infection in a very hos ...

[6] = test system: A549 cells (HAdV-C5 virions); assay: 35S-labeled HAdV-C5 virion binding to A549 cells; assay type: cell-based, Human; details: at this concentration (2 μM), Fig. 1C
Method: A549 cells were detached using phosphate-buffered saline (PBS) plus 0.05% EDTA with slow rocking at 37°C. Once detached, the cells were centrifuged at 1,500 × g for 5 min, resuspended in growth medium to about 2 × 10^6 cells/ml, and allowed to recover at 37°C, slowly rocking to keep the cells in suspension. While recovering, the HAdV-Lfcin complex was set up. Lfcin (2 μM), or an equivalent volume of PBS, was mixed with ^35S-labeled HAdV (15,000 particles/cell) in medium and left on ice at 4°C for 60 min. After 60 min of recovery, the cells were counted, and 150,000 viable cells were added to each well of a 96-V-shaped-well plate and centrifuged for 5 min at 1,500 × g. Once pelleted, the cells were resuspended in the HAdV-Lfcin solution or in HAdV-PBS solution and incubated on ice for 60 min at 4°C. After 60 min, the cells were pelleted and washed once in medium and once in PBS before the addition of scintillation fluid and quantification using a Wallac 1450 Microbeta counter (Trilux).

[7] = association rate constant, analyte hLF, SPR, HBS-EP+ pH 7.4, 25°C, average from three independent measurements
[8] = dissociation rate constant, analyte hLF, SPR, HBS-EP+ pH 7.4, 25°C, average from three independent measurements
[9] = LF 1 mg/ml preincubated with HAdV-C5_GFP

Row | Molecule | Kd ([1]; SPR Biacore T200, HAdV-C5 hexon amine-coupled on CM5 chip (900 to 1,100 RU), analyte hLF, 2-fold series 8 nM to 2 μM, HBS-EP+ pH 7.4, 25°C, average from three independent measurements) | affinity ratio, HAdV-C5 hexon stronger than HAdV-B35 hexon ([1]; SPR, 25°C, pH 7.4, HAdV-C5 versus HAdV-B35 hexon) | ka [1, 7] | kd [1, 8] | Kd ([2]; SPR Biacore T200, HAdV-B35 hexon on CM5 chip, analyte hLF, 2-fold series 8 nM to 2 μM, HBS-EP+ pH 7.4, 25°C, average from three independent measurements) | affinity ratio, HAdV-B35 hexon stronger than HAdV-A31 hexon ([2]; SPR, 25°C, pH 7.4, HAdV-B35 versus HAdV-A31 hexon) | ka [2, 7] | kd [2, 8] | Kd ([3]; SPR Biacore T200, HAdV-A31 hexon on CM5 chip, 2-fold series 8 nM to 2 μM) | ka ([3]; association rate constant, SPR) | kd ([3]; dissociation rate constant, SPR) | increase of HAdV-C5_GFP transduction of A549 cells by LF ([4]; LF 1 mg/ml preincubated with HAdV-C5_GFP, GFP imaging after 44 h, mean from 3 to 5 independent experiments (Fig. 1A)) | prevention of transduction at high concentration ([4]; high, nonphysiological concentrations, data not shown, cell line not stated, also ref [15]) | effect on HAdV-C5 infection of CAR-negative T cells ([5]; CAR-negative T cells) | effect on species C HAdV infection [5] | effect of LF on HAdV-C5_GFP transduction of A549 cells (in words) [4, 9] | effect on HAdV-C5 transduction of A549 cells (in words) ([4]; at this concentration (2 μM), Fig. 1D) | effect on HAdV-C5 binding to A549 cells (in words) [6]
1 | B1 | 29 ± 3.6 nM | about 5 fold | 53000 ± 2600 M⁻¹ s⁻¹ | 0.00154 ± 0.00024 s⁻¹ | 151 ± 14 nM | 5 fold | 25000 ± 2500 M⁻¹ s⁻¹ | 0.00354 ± 0.00014 s⁻¹ | 827 ± 55 nM | 12000 ± 1100 M⁻¹ s⁻¹ | 0.01011 ± 0.00024 s⁻¹ | 4 fold | able to prevent transduction | facilitates HAdV-C5 infection | efficiently increases species C HAdV infection; also recorded: all species C HAdVs infect epithelial and T cells more efficiently | – | – | –
2 | B2 | – | – | – | – | – | – | – | – | – | – | – | – | – | – | – | Neither bLF nor rhLF affected HAdV-C5_GFP transduction | – | –
3 | B3 | – | – | – | – | – | – | – | – | – | – | – | – | – | – | – | Neither bLF nor rhLF affected HAdV-C5_GFP transduction | no or little effect | no or little effect

From publication PMC7343212, “Lactoferrin-Hexon Interactions Mediate CAR-Independent Adenovirus Infection of Human Respiratory Cells” (Journal of Virology, 2020)
